According to patent publication US20220016205A1, “METHODS OF OVERCOMING RESISTANCE TO IMMUNE CHECKPOINT INHIBITORS” (Board of Regents, The University of Texas System, priority 2018, published 2022):

Tests used:
CD4^+ T cells [1] = assay: qPCR of p38α, IFN-γ, IL-2 in activated CD4+ T cells treated with BMP7 or BMP7 plus follistatin; type: cell-based, mouse; conditions: BMP7 plus follistatin compared with BMP7 only, 24 hours (FIG. 4F)
Text: (§1) Quantitative polymerase chain reaction (qPCR). Total RNA was isolated from cells and tumors with Triazol (Life Technologies) according to the manufacturer's protocol. For studies of BMP7, p38α, IL-1α, IL-1β, TNF-α, RANTES, IL-2, and IFN-γ expression, mRNA was retrotranscribed with the iScript™ gDNA Clear cDNA Synthesis Kit (BioRad) and analyzed by qPCR using SYBR Green (Life Technologies) with specific primers according to the manufacturer's protocol. The comparative Ct method was used to calculate the relative abundance of mRNAs compared with ACTB (beta-actin) expression for cancer cells or CD45 expression for immune cells.
(§2) Co-culture experiments and treatments. Viable cells were counted with a hemocytometer (0.4% Trypan blue solution) and diluted to 40,000 cells per well in 24-wells plates. Cells from 344SQP, 344SQR, 344SQ ctrl, or 344SQ-shBMP7 tumors were seeded at the top inserts (24-mm Transwell with 0.4-μm pore polycarbonate membrane insert, Sigma-Aldrich), and RAW 264.7 or CD4^+ T cells were seeded at the bottom of the transwell system. CD4^+ T cells were isolated from splenocytes by using Dynabeads Untouched Mouse CD4 Cells Kit (Thermo Fisher Scientific—Life Technologies, Catalog #11416D) and activated with LEAF purified anti-mouse CD3c antibody (5 μg/mL) and LEAF purified anti-mouse CD28 antibody (1 μg/mL) (Biolegend). […] RNA was then isolated from RAW 264.7 or CD4^+ T cells and analyzed for p38α, IL-1α, IL-1β, TNF-α, RANTES, IL-2 and IFN-γ expression with qPCR.
(§3) Next, CD4^+ T cells were co-cultured with 344SQP or 344SQR cells, and 344SQR ctrl or 344SQR shBMP7 cells, and the expression of p38α, IFN-γ, and IL-2 analyzed. […] To confirm that these findings depended on BMP7 and not on some other secreted molecule, CD4^+ T cells were treated with BMP7 with or without follistatin and p38α, IFN-γ, and IL-2 expression evaluated. […]

CD4^+ T cells [2] = assay: qPCR of p38α, IFN-γ, IL-2 in CD4+ T cells co-cultured with 344SQR cells plus follistatin; type: cell-based, mouse; conditions: 344SQR co-culture plus follistatin versus 344SQR without follistatin, 24 hours (FIG. 4G)
Text: as §1
Co-culture experiments and treatments. Viable cells were counted with a hemocytometer (0.4% Trypan blue solution) and diluted to 40,000 cells per well in 24-wells plates. […] RNA was then isolated from RAW 264.7 or CD4^+ T cells and analyzed for p38α, IL-1α, IL-1β, TNF-α, RANTES, IL-2 and IFN-γ expression with qPCR.
as §3

344SQR tumors = assay: Tumor growth and survival of mice with anti-PD1-resistant 344SQR tumors treated with follistatin, anti-PD1 or both; type: in vivo, 129Sv/Ev mice; conditions: follistatin 0.1 mg/kg i.p. (with or without anti-PD1 10 mg/kg), 2 weeks
Description: In vivo studies. All mouse studies were approved by the Institutional Animal Care and Use Committee (IACUC) of The University of Texas MD Anderson Cancer Center before their initiation; animal care was provided according to IACUC standards, and all mice had been bred and were maintained in our own specific pathogen-free mouse colony. For RRBS, RPPA and TILs studies, primary tumors were established by subcutaneous injection of 344SQP or 344SQR cells (0.5×10^6 in 100 μL of sterile phosphate buffered saline [PBS]) into the leg of syngeneic 129Sv/Ev mice (female, 12-16 weeks old). Mice were then given intraperitoneal injections of anti-PD1 or control IgG antibodies (10 mg/kg) (Bio X cell), starting on day 4 after tumor cell inoculation and continuing twice per week for a total of 4 doses. At 24 hours after the last anti-PD1 treatment, tumor tissues were collected for DNA (2 mice/group) and protein isolation (2 or 3 mice/group). For TILs isolation, tumor tissues (3 mice/group) were collected a week after the last treatment with anti-PD1. […] Tumors were measured with calipers three times per week and recorded as tumor volume (in mm^3)=width^2×length/2. […] Mouse survival rates were analyzed by using the Kaplan-Meier method and compared with log-rank tests.

peritoneal macrophages = assay: qPCR of p38α, IL-1α, IL-1β, TNF-α, RANTES in peritoneal macrophages treated with BMP7 or BMP7 plus follistatin; type: cell-based, mouse; conditions: BMP7 plus follistatin compared with BMP7 only
Text: as §1
as §2, with “system.” for “system. CD4^+ T cells were isolated from splenocytes by using Dynabeads Untouched Mouse CD4 Cells Kit (Thermo Fisher Scientific—Life Technologies, Catalog #11416D) and activated with LEAF purified anti-mouse CD3c antibody (5 μg/mL) and LEAF purified anti-mouse CD28 antibody (1 μg/mL) (Biolegend).”

B1: follistatin: BMP7 antagonist protein, natural inhibitor of BMP7 (R&D Systems, Catalog #769-FS-025) (protein, UniProt P19883 30-344, looked up)
Follistatin: GNCWLRQAKNGRCQVLYKTELSKEECCSTGRLSTSWTEEDVNDNTLFKWMIFNGGAPNCIPCKETCENVDCGPGKKCRMNKKNKPRCVCAPDCSNITWKGPVCGLDGKTYRNECALLKARCKEQPELEVQYQGRCKKTCRDVFCPGSSTCVVDQTNNAYCVTCNRICPEPASSEQYLCGNDGVTYSSACHLRKATCLLGRSIGLAYEGKCIKAKSCEDIQCTGGKKCLWDFKVGRGRCSLCDELCPDSKSDEPVCASDNATYASECAMKEAACSSGVLLEVKHSGSCNSISEDTEEEEEDEDQDYSFPISSILEW
Q: B1 was tested. Which “expression of p38α, IFN-γ, and IL-2” value (CD4^+ T cells [1]) did it give?
A: The value was “higher expression”.

Q: And the “expression of p38α, IFN-γ, and IL-2” value (CD4^+ T cells [2])?
A: The value was “higher expression”.

Q: What about the tumor growth (344SQR tumors; compared with anti-PD1 therapy only (FIG. 5C)) of the same molecule?
A: Its tumor growth is “decreased tumor growth”.

Q: What about the survival (344SQR tumors; compared with anti-PD1 therapy only, Kaplan-Meier (FIG. 5C)) of the same molecule?
A: The survival was “extended survival”.

Q: And the “levels of p38α, IL-1α, TNF-α, IL-1β, and RANTES” value (peritoneal macrophages)?
A: The value was “higher levels”.
